Results taken from US20250051455A1 (Hoffmann-La Roche, published 2025).

Tests used:
[1] = biological target: T1, modified human HLA-G β2M MHC class I complex (HLA-G specific amino acids replaced by HLA-A consensus amino … (human)); test: ELISA, biotinylated degrafted HLA-G on streptavidin plate (no EC50; Max. OD 0.13)
T1 construct: Counter antigen: single-chain fusion of peptide, beta-2 microglobulin and HLA-G in which 14 HLA-G unique surface positions were mutated to an HLA-A consensus; also called degrafted HLA-G; HLA-G-0007
Description: (§1) Streptavidin coated plates (Nunc, MicroCoat #11974998001) were coated with 25 μl/well biotinylated human degrafted HLA-G at a concentration of 250 ng/ml and incubated at 4° C. overnight. After washing (3×90 μl/well with PBST-buffer) 25 μl anti-HLA-G samples (1:3 dilution in OSEP buffer) or rat serum (1:600 dilution in OSEP) were added and incubated 1 h at RT. After washing (3×90 μl/well with PBST-buffer) 25 μl/well of a mixture of goat-anti-rat IgG1-POD (Bethyl #A110-106P), goat-anti-rat IgG2a-POD (Bethyl #A110-109P) and goat-anti-rat IgG2b-POD (Bethyl #A110-111P) 1:10000 in OSEP was added and incubated at RT for 1 h on shaker. After washing (6×90 μl/well with PBST-buffer) 25 μl/well TMB substrate (Roche, 11835033001) was added and incubated until OD 2-3. Measurement took place on a Tecan Safire 2 instrument at 370/492 nm.

[2] = biological target: T1, modified human HLA-G β2M MHC class I …; test: ELISA, biotinylated degrafted HLA-G on streptavidin plate (no EC50; Max. OD 0.15)
Description: as §1

[3] = biological target: T2, recombinant soluble human HLA-G β2M MHC class I complex, dimer (human); test: competition ELISA, antibody 44 nM; competitor coated ILT2-Fc
T2 construct: Non-biotinylated; also called HLA-G Dimer; dimeric HLA-G
Description: (§2) The ELISA was set up by coating the Fc tagged ILT2 and ILT4 respectively to Maxisorp microtiter plates. After incubation and washing steps, the respective antibodies were added at a concentration of 100 nM. Soluble His tagged monomeric, dimeric or trimeric HLA-G was added to the wells. After incubation and washing steps, detection of bound receptor was carried out by anti-His-antibody-POD conjugates.
(§3) The above tables summarize the blocking of interaction between rec. HLA-G proteins (monomer and oligomers) to its receptors ILT2 and ILT4 by the described HLAG antibodies at a concentration of 110 nM (*HLAG-0090 was tested at a concentration of 44 nM) as assessed by ELISA. Shown are the % inhibitions of the HLA-G/receptor interaction (for ILT2 and ILT4). The less pronounced ILT4 inhibition depends on the major β2M dependent interaction of this receptor.

[4] = biological target: T3, recombinant soluble human HLA-G β2M MHC class I complex, trimer (human); test: as above
T3 construct: Non-biotinylated; also called HLA-G Trimer; trimeric HLA-G
Description: as §2, §3

[5] = biological target: T4, recombinant soluble human HLA-G β2M MHC class I complex, monomer (human); test: as above
T4 construct: His tagged; biotinylated where coated on streptavidin plates, non-biotinylated in SPR; also called HLA-G-0003; wt HLA-G (monomer)
Description: as §2, §3

[6] = biological target: T1, modified human HLA-G β2M MHC class I …; test: ELISA, biotinylated degrafted HLA-G on streptavidin plate (no EC50; Max. OD 0.2)
Description: as §1

[7] = biological target: T2, recombinant soluble human HLA-G β2M MHC …; test: competition ELISA, antibody 44 nM; competitor coated ILT4-Fc
Description: as §2, §3

[8] = biological target: T3, recombinant soluble human HLA-G β2M MHC …; test: as above
Description: as §2, §3

[9] = biological target: T4, recombinant soluble human HLA-G β2M MHC …; test: as above
Description: as §2, §3

B1: HLA-G-0031 (antibody, V domains shown)
VH: QVKLMQSGAALVKPGTSVKMSCNASGYTFTDYWVSWVKQSHGKRLEWVGEISPNSGASNFDENFKDKATLTVDKSTSTAYMELSRLTSEDSAIYYCTRSSHGSFRWFAYWGQGTLVTVSS
VL: AIVLNQSPSSIVASQGEKVTITCRASSSVSSNHLHWYQQKPGAFPKFVIYSTSQRASGIPSRFSGSGSGTSYSFTISRVEAEDVATYYCQQGSSNPYTFGAGTKLELK
notes: Rat monoclonal antibody obtained from CD rats
[1]
  binding result: no binding

B2: HLA-G-0039 (antibody, V domains shown)
VH: EVQLLESGGGLVQPGGSLRLSCAASGFTFSSYAMNWVRQAPGKGLEWVSVISGSGVSTYYADSVKGRFTISRDNSRNTLSLQMNSLRAEDTAVYYCAKDGSYNYGYGDYFDYWGQGTLVTVSS
VL: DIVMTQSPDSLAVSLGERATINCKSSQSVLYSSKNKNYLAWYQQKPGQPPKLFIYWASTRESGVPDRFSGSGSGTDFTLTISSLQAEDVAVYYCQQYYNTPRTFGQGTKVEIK
notes: Human antibody from humanized OmniRat (OMT) rats
[1]
  binding result: no binding

B3: HLA-G-0041 (antibody, V domains shown)
VH: EVQLLESGGGLVQPGGSLRLSCAASGFTFSTYGMSWVRQAPGKGLEWVSVISGGGVSTYYADSVKGRFTISRDNSKNTLYLQMNRLRAEDTAVYYCAKDGSYNYGYGDYFDYWGQGTLVTVSS
VL: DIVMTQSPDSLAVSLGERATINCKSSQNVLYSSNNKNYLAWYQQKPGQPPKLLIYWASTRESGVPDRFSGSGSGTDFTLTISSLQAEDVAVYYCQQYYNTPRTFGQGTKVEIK
notes: as for B2
[2]
  binding result: no binding

B4: HLA-G-0090 (antibody, V domains shown)
VH: QVQLQQSGPGLLKPSQTLSLTCAISGDSVSSNRAAWNWIRQSPSRGLEWLGRTYYRSKWYNDYAVSVQGRITLIPDTSKNQFSLRLNSVTPEDTAVYYCASVRAVAPFDYWGQGVLVTVSS
VL: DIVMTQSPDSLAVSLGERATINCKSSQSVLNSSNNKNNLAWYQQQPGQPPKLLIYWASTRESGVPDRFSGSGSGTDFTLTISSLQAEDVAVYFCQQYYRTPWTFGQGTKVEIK
notes: as for B2
[3]
  % inhibition of ILT2 binding: 100%
[4]
  % inhibition of ILT2 binding: 99%
[5]
  % inhibition of ILT2 binding: 92%
[6]
  binding result: no binding
[7]
  % inhibition of ILT4 binding: 31%
[8]
  % inhibition of ILT4 binding: 47%
[9]
  % inhibition of ILT4 binding: 31%
